The record followed here is paper PMC5141509, “Identification of protein structural elements responsible for the diversity of sequence preferences among Mini-III RNases”.

One series has as its system FpMiniIII. The series can be described thus: filter binding. To be noted: Enzyme-specific cleavage buffer (Table S1, mostly not in material) with MgCl2 replaced by 1 mM CaCl2; 1.5 nM 33P-dsRNA, 50 ul, 1 h at room temperature ….
The test system of series [1] is Ct(FpHL)MiniIII (chimera). The series can be described thus: filter binding. The note with it: Enzyme-specific cleavage buffer (Table S1, mostly not in material) with MgCl2 replaced by 1 mM CaCl2; 1.5 nM 33P-dsRNA, 50 ul, 1 h at room temperature ….
A further series concerns SeMiniIII. The series can be described thus: filter binding. The note with it: Enzyme-specific cleavage buffer (Table S1, mostly not in material) with MgCl2 replaced by 1 mM CaCl2; 1.5 nM 33P-dsRNA, 50 ul, 1 h at room temperature ….
The next series relates to Ct(FpL)MiniIII (chimera). The series can be described thus: filter binding. The note with it: Enzyme-specific cleavage buffer (Table S1, mostly not in material) with MgCl2 replaced by 1 mM CaCl2; 1.5 nM 33P-dsRNA, 50 ul, 1 h at room temperature ….
In a further series the test system is Ct(FpH)MiniIII (chimera). The series can be described thus: filter binding. The note with it: Enzyme-specific cleavage buffer (Table S1, mostly not in material) with MgCl2 replaced by 1 mM CaCl2; 1.5 nM 33P-dsRNA, 50 ul, 1 h at room temperature ….
For another series, the system named is CtMiniIII. The series can be described thus: filter binding. The note with it: Enzyme-specific cleavage buffer (Table S1, mostly not in material) with MgCl2 replaced by 1 mM CaCl2; 1.5 nM 33P-dsRNA, 50 ul, 1 h at room temperature ….
Another series addresses T1, BsMiniIII (Bacillus subtilis, UniProt O31418 1-143).
T1 sequence: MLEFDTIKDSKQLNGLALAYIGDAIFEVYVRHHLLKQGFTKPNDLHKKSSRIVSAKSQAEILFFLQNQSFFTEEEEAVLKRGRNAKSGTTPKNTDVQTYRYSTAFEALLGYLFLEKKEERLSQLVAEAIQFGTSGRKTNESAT
The series can be described thus: filter binding; 1 mM Ca2+ (no Mg2+); Enzyme-specific cleavage buffer (Table S1, mostly not in material) with MgCl2 replaced by 1 mM CaCl2; 1.5 nM 33P-dsRNA, 50 ul, 1 h at room temperature; nitrocellulose filter; one-site fit. The note with it: protein: recombinant; tags: N-terminal His6 (pET28a, NdeI/XhoI); chain copies: 2; label: 33P 5' end label; blunt.

A value given as a limit tells only on which side of the number the result lay.

Take “CCUGUCCCCCGCCGAAGUCGCUGCAAUU / AAUUGCAGCGACUUCGGCGGGGGACAGG [NEG]”: the dissociation constant Kd (commonly the constant that tells how readily two partners part at equilibrium) in the series on FpMiniIII was 19.9 µM; in series [1], 2250 nM; with SeMiniIII, 190 nM; with Ct(FpL)MiniIII (chimera), 1800 nM; with Ct(FpH)MiniIII (chimera) it was 1940 nM; with CtMiniIII, 1340 nM.

With “GCUGGGAGGGAAACCUCUCUCUCUGGCC / GGCCAGAGAGAGAGGUUUCCCUCCCAGC [POS-ACCU]”, the dissociation constant (Kd) in the series with FpMiniIII was over 100 µM; in series [1] it was 2170 nM; with SeMiniIII it was 160 nM; in the series on Ct(FpL)MiniIII (chimera) it was 1330 nM; in the series on Ct(FpH)MiniIII (chimera) it was 2620 nM; in the series with CtMiniIII, 1140 nM.

B1: POS-ACCU (dsRNA)
RNA 1: GCUGGGAGGGAAACCUCUCUCUCUGGCC
RNA 2: GGCCAGAGAGAGAGGUUUCCCUCCCAGC
Consider B1, for which the Kd with BsMiniIII came to 140 ± 20 nM.

B2: NEG (dsRNA)
RNA 1: CCUGUCCCCCGCCGAAGUCGCUGCAAUU
RNA 2: AAUUGCAGCGACUUCGGCGGGGGACAGG
In the case of B2, the Kd with BsMiniIII was 70 ± 10 nM.
